This is an account of results in US20140087995A1 (published 2014).

Numbered stars: 1 amine (or outer) side, 2 acyl side, 3 side chain; on linkers, the order of the positions; unused ones are H or OH. Bridge positions count the residues as written; N and C are the ends. Side chains are listed from the residue outwards. Ends that are not written are not given here. * marks the point of attachment. C20 diacid = O=C(O)CCCCCCCCCCCCCCCCCCC(=O)*; γGlu = O=C(O)[C@H](CCC(=O)[*:2])N[*:1]

This assay has as its target T1, human calcitonin receptor (human, UniProt P30988 25-474).
T1 sequence (looked up): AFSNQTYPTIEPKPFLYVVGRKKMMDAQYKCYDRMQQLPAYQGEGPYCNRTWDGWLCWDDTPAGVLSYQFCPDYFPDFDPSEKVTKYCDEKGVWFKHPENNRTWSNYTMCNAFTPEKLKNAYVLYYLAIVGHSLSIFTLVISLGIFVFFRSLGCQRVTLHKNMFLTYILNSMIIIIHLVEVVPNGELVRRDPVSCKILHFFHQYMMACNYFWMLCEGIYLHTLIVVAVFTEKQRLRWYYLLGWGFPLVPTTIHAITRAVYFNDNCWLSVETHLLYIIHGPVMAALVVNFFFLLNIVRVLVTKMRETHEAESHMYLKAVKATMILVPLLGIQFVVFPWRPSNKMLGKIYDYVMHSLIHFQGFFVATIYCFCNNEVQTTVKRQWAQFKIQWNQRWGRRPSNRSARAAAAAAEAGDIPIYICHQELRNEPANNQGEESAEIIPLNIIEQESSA
The assay is described as follows: cell-based or functional assay.

B1: N^ε1-[(4S)-4-carboxy-4-(19-carboxynonadecanoylamino)butanoyl]-[Glu14,Arg17,Pro21,Pro27,Pro34,Glu35]-h-amylin (peptide)
peptide: K([γGlu-C20 diacid])CNTATCATQRLAEFLRHSSPNFGAIPSSTNVGPETY-NH2
modifications: disulfide 2-7; N-terminus assumed
SMILES: CC[C@H](C)[C@H](NC(=O)[C@H](C)NC(=O)CNC(=O)[C@H](Cc1ccccc1)NC(=O)[C@H](CC(N)=O)NC(=O)[C@@H]1CCCN1C(=O)[C@H](CO)NC(=O)[C@H](CO)NC(=O)[C@H](Cc1c[nH]cn1)NC(=O)[C@H](CCCNC(=N)N)NC(=O)[C@H](CC(C)C)NC(=O)[C@H](Cc1ccccc1)NC(=O)[C@H](CCC(=O)O)NC(=O)[C@H](C)NC(=O)[C@H](CC(C)C)NC(=O)[C@H](CCCNC(=N)N)NC(=O)[C@H](CCC(N)=O)NC(=O)[C@@H](NC(=O)[C@H](C)NC(=O)[C@@H]1CSSC[C@H](NC(=O)[C@@H](N)CCCCNC(=O)CC[C@H](NC(=O)CCCCCCCCCCCCCCCCCCC(=O)O)C(=O)O)C(=O)N[C@@H](CC(N)=O)C(=O)N[C@@H]([C@@H](C)O)C(=O)N[C@@H](C)C(=O)N[C@@H]([C@@H](C)O)C(=O)N1)[C@@H](C)O)C(=O)N1CCC[C@H]1C(=O)N[C@@H](CO)C(=O)N[C@@H](CO)C(=O)N[C@H](C(=O)N[C@@H](CC(N)=O)C(=O)N[C@H](C(=O)NCC(=O)N1CCC[C@H]1C(=O)N[C@@H](CCC(=O)O)C(=O)N[C@H](C(=O)N[C@@H](Cc1ccc(O)cc1)C(N)=O)[C@@H](C)O)C(C)C)[C@@H](C)O
notes: synthetic peptide amide
As for B1, the “hCTR funct. EC50 (pM)” value worked out at 841 pM.
